Legend:
[1] = target: T1, SOD7 (NGAL2, At3g11580) (Arabidopsis thaliana, UniProt Q8RYD3 SEQ:1-267); test: EMSA; binding reduced by unlabeled probe A; details: tags: N-terminal MBP fusion (pMAL-C2), expressed in E. coli BL21(DE3), amylose purified; label: biotin
T1 sequence: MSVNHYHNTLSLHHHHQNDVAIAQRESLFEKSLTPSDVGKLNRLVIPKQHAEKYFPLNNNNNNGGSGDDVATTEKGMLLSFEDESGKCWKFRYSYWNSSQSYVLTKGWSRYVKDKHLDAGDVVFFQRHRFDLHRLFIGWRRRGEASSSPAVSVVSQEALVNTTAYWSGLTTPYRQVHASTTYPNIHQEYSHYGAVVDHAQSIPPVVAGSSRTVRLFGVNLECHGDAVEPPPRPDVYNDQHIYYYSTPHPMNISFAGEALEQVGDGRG
Protocol: (§1) (A) Expression dynamics of SOD7 and KLU in pER8-SOD7 transgenic plants treated with β-estradiol for 0, 4 and 8 hours. Means were calculated from three biological samples. Values are given as mean±SD. **, P<0.01, compared with the expression level of KLU and SOD7 at 0 hour, respectively (Student's t-test). (B) A 2-kb promoter region of KLU upstream of its ATG codon contains a CACTTG sequence. PF1 and PF2 represent PCR fragments used for ChIP-quantitative PCR analysis. A and A-m indicate the wild-type probe and the mutated probe used in the EMSA essay, respectively. […] Chromatin from 35S:GFP and 35S:GFP-SOD7 transgenic plants was immunoprecipitated by anti-GFP, and the enrichment of the fragments was determined by quantitative real-time PCR. The ACTIN7 promoter was used as a negative control. The fold enrichment was normalized to the ACTIN7 amplicon, set at 1. Means were calculated from three biological samples. Values are given as mean±SD. **, P<0.01, compared with 35S:GFP transgenic plants (Student's t-test). (D) Direct interaction between SOD7 and the KLU promoter determined by EMSA. […] The retarded DNA-protein complex was reduced by competition using the unlabeled probe A.
(§2) The coding sequence of SOD7 was cloned into the NdeI and BamHI sites of the pMAL-C2 vector to generate the construct MBP-SOD7. […]

[2] = target: T1, SOD7 (NGAL2, At3g11580); test: EMSA; mutated CACTTG, failed to bind; details: tags: N-terminal MBP fusion (pMAL-C2), expressed in E. coli BL21(DE3), amylose purified; label: biotin
Protocol: as §1, §2

B1: KLU promoter probe A (dsDNA)
DNA 1: TTCTACTACACTTGCTCTCTGTA
DNA 2: TACAGAGAGCAAGTGTAGTAGAA
**Q.** Does B1 bind [1]?
**A.** binds

B2: KLU promoter probe A-m (dsDNA)
DNA 1: TTCTACTAACACCTCTCTCTGTA
DNA 2: TACAGAGAGAGGTGTTAGTAGAA
**Q.** Does B2 bind [2]?
**A.** no binding
